Consider 10 molecules from patent US20170306032A1 (RESEARCH CORPORATION TECHNOLOGIES, published 2017).

As a reminder, the Kd is the equilibrium constant for the complex coming apart. Broadly, the koff is the first-order rate constant of dissociation. Usually kon stands for the second-order rate constant of association. A word on the EC50: it is the concentration that produces a half-maximal response.

The target in test [1] is T1, human EphA2 receptor expressed on cells (HEK293-EphA2, CHO-EphA2, PC-3) (human, UniProt P29317 24-976).
T1 construct: whole, on cells; also called EphA2 transfected cells; HEK293-EphA2 overexpressing cells
Briefly: immunofluorescence on PC-3 cells expressing endogenous EphA2 receptor, 4° C. for 30 minutes.

The target of test [2] is T2, FcRn.
T2 construct: also called neonatal receptor FcRn
Briefly: SPR. On the technique in general: In SPR one partner is held on a chip, and binding of the other changes the refractive index at the surface.

Test [3] concerns the target T3, mouse EphA2 recombinant protein (Fc chimera, R&D Systems, cat#639-A2) (mouse, UniProt Q03145 26-535).
T3 construct: Biotinylated for the Octet assay; also called mEphA2-Fc; mEphA2; Fc part of the bought chimera not given
The experiment in a line: SPR, Biacore 3000, on mEphA2.

Test [4] concerns the target BSA (bovine serum albumin, control) (bovine, UniProt P02769 25-607). Briefly: phage ELISA on coated BSA, anti-M13-HRP. Background: ELISA stands for enzyme-linked immunosorbent assay.
Test [5] has as its target T4, human EphA2 recombinant protein (purified human EphA2 extracellular domain) (human, UniProt P29317 24-537).
T4 construct: extracellular domain; Biotinylated for the Octet assay; also called hEphA2; huEphA2
The experiment in a line: phage ELISA on coated hEphA2, anti-M13-HRP, developed 30 min.

The target of test [6] is T1, human EphA2 receptor expressed on cells …. Briefly: phage ELISA on fixed HEK293 cells with doxycycline-induced EphA2 (NO DOX, 100, 50, 25 ng/ml), anti-M13-HRP.
Test [7] concerns the target T3, mouse EphA2 recombinant protein (Fc …). Briefly: end-point titration ELISA on mEphA2.
The target in test [8] is T4, human EphA2 recombinant protein …. Briefly: end-point titration ELISA on huEphA2.
Test [9] addresses T1, human EphA2 receptor expressed on cells …. The experiment in a line: FACS on CHO cells transfected with human EphA2.
Test [10] has as its target T4, human EphA2 recombinant protein …. Briefly: SPR, Biacore 3000, immobilized huEphA2 extracellular domain.
Test [11] has the same target. The experiment in a line: SPR, Biacore 3000, immobilized huEphA2 extracellular domain, KDkinetic.
Test [12] has the same target. Briefly: SPR, Biacore 3000, immobilized huEphA2 extracellular domain, KDequilibrium.
The target in test [13] is T3, mouse EphA2 recombinant protein (Fc …). Briefly: BLI, Octet Red, biotinylated mEphA2 on streptavidin sensors, steady state fit (column head prints EC50, title KD). A general note: Biolayer interferometry detects binding as a change in optical thickness at a sensor tip.
In test [14] the target is T4, human EphA2 recombinant protein …. The experiment in a line: BLI, Octet Red, biotinylated huEphA2 on streptavidin sensors, steady state fit (column head prints EC50, title KD).
In test [15] the target is T1, human EphA2 receptor expressed on cells …. The experiment in a line: FACS titration on human EphA2 transfected CHO cells, anti-His-FITC detection [upper panel].

T1 sequence (P29317 24-976): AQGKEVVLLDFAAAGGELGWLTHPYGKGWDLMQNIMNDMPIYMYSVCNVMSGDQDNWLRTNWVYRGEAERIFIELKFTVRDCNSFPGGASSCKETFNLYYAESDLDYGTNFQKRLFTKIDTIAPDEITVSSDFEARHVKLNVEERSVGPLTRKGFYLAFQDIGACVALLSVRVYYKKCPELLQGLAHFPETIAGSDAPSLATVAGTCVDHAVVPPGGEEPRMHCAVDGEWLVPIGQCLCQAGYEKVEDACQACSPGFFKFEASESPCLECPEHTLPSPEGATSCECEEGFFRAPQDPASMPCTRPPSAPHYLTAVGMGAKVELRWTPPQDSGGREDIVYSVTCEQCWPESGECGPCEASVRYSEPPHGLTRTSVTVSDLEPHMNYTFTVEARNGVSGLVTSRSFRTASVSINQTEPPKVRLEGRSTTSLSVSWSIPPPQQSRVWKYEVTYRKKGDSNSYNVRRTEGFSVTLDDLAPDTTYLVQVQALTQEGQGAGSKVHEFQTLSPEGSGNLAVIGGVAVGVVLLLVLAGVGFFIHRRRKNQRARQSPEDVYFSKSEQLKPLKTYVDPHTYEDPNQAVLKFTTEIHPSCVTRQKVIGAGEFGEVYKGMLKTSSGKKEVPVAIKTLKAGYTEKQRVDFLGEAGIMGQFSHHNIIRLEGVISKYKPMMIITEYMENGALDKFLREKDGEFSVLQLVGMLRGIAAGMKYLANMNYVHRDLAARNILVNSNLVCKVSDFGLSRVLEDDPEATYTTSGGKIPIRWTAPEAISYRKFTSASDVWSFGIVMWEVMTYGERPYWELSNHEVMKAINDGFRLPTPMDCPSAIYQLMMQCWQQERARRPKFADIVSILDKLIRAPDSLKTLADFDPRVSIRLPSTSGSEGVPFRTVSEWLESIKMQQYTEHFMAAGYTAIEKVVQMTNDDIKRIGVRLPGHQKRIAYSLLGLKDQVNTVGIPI
T4 sequence (P29317 24-537): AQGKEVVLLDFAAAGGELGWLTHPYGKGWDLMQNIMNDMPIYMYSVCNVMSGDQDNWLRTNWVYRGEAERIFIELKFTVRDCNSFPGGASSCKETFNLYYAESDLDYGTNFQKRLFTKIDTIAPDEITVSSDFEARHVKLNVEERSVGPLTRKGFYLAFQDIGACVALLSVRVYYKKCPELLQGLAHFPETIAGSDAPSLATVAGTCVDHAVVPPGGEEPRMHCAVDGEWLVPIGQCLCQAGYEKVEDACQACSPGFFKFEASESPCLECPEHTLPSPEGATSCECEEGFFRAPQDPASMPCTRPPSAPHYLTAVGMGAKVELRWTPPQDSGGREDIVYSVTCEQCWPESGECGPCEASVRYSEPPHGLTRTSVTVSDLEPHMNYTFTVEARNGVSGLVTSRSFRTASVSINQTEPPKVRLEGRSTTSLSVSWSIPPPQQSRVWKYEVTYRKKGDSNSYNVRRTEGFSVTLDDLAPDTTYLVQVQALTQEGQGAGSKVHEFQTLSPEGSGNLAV
T3 sequence (Q03145 26-535, change not shown): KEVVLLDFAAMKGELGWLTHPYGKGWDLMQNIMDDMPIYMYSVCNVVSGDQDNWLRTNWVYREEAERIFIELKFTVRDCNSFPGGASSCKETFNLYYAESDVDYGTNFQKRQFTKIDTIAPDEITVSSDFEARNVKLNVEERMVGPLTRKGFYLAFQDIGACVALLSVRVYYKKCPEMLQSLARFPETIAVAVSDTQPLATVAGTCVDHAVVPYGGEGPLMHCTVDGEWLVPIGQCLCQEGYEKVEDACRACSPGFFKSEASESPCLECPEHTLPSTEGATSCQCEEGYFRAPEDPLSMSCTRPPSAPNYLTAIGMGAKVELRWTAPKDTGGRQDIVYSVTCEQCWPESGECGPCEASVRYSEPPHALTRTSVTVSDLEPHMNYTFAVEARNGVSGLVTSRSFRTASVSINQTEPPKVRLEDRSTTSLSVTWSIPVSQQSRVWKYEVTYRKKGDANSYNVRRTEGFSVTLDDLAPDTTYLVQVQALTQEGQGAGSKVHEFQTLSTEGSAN
T2 sequence (P55899 24-297, chain 1 of 2): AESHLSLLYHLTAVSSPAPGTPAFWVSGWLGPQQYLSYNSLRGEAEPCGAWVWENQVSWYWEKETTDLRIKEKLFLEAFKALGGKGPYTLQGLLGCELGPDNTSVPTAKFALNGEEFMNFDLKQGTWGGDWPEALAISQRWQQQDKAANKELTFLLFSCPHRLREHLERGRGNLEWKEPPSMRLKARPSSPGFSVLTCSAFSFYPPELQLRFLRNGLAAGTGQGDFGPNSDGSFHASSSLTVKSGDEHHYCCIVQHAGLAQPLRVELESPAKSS
T2 sequence (P61769 21-119, chain 2 of 2, further chain): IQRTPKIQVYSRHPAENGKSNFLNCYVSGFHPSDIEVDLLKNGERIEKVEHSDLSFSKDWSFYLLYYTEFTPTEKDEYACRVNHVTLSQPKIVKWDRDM
Sequence of BSA (bovine serum albumin, control) (P02769 25-607 limits assumed): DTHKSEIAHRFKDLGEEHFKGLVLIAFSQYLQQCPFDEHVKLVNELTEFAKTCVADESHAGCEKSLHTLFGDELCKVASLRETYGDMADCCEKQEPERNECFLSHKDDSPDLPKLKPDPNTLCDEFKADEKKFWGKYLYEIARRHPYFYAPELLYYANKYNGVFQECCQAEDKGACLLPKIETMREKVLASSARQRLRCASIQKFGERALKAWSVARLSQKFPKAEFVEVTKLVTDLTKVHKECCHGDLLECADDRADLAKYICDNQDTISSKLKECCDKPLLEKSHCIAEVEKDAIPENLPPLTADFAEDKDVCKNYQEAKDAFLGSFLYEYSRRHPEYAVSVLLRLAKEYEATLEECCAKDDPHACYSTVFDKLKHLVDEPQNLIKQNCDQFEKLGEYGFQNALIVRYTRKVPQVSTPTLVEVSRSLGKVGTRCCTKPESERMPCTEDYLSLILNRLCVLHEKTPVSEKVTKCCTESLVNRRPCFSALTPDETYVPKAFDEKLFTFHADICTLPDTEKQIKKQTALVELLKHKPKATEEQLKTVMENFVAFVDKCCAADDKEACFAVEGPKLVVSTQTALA

B1: B11 modified CH2 domain SEQ ID NO: 91 (C terminal cysteine) conjugated with Biotin-dPEG11 (designed binder)
chain: GPSVFLFPPKPKDTLMISRTPEVTCVVVDYRADYLDVKFNWYVNGAEVHHAQTKPRQYDPLYGYRVVSVLTVTHQDWLNGKEYTCKVSNKALPAPIQKTISKDC
modifications: conjugated with Biotin-dPEG11-MAL after reduction with DTT; the residue that carries it is not stated (chain has a C terminal cysteine)
notes: also called B11-dPEG-biotin
With B1, the binding result in test [1] is given as “binds”.

B2: E10 modified CH2 domain (first generation loop 2 clone, parental clone of the affinity maturation) (designed binder)
chain: GPSVFLFPPKPKDTLMISRTPEVTCVVVDVSHEDPEVKFNWYVDGAEVHHAQTKPRQYDPLYGYRVVSVLTVLHQDWLNGKEYKCKVSNKALPAPIEKTISKAK
notes: purified protein elsewhere; also called E10par
Turning to B2, the values for the Kd in [2] and in [3] were 3260 nM and 97 nM, respectively. In test [3], the koff is 0.008 s⁻¹. In test [3], the kon was 79100 M⁻¹ s⁻¹. For the same molecule, the values for the binding result in [4], in test [5] and in [6] were “no binding”, “binds” and “binds”, respectively.

B3: G7 modified CH2 domain (affinity matured, loop 1 PHLGVD, loop 2 of E10) (designed binder)
chain: GPSVFLFPPKPKDTLMISRTPEVTCVVVDPHLGVDEVKFNWYVDGAEVHHAQTKPRQYDPLYGYRVVSVLTVLHQDWLNGKEYKCKVSNKALPAPIEKTISKAK
Regarding B3, the EC50 worked out at 3.18 nM in [7], 8.06 nM in test [8] and 333 nM in test [9]. The koff in test [10] came out at 0.0375 s⁻¹. Also, the kon in test [10] was determined as 1.8e+06 M⁻¹ s⁻¹. Besides, the Kd in test [11] was 21 nM; in test [12] it was 22 nM; in test [13], 21 nM; in [14], 18 nM.

B4: H6 modified CH2 domain (first generation loop 2 clone) (designed binder)
chain: GPSVFLFPPKPKDTLMISRTPEVTCVVVDVSHEDPEVKFNWYVDGAEVHHAQTKPRRVDPLGGYRVVSVLTVLHQDWLNGKEYKCKVSNKALPAPIEKTISKAK
notes: purified on a Nickel column from E. coli periplasm for protein ELISA and SPR
As for B4, in test [3], the Kd was found to be 873 nM, the koff was 0.008 s⁻¹ and the kon amounted to 9610 M⁻¹ s⁻¹. Besides, the binding result in test [4] is on record as “no binding”. In addition, the binding result in [5] is on record as “binds”. Moreover, the binding result in test [6] is “binds”.

B5: D2 modified CH2 domain (affinity matured, loop 1 YEAAAL, loop 2 of E10) (designed binder)
chain: GPSVFLFPPKPKDTLMISRTPEVTCVVVDYEAAALEVKFNWYVDGAEVHHAQTKPRQYDPLYGYRVVSVLTVLHQDWLNGKEYKCKVSNKALPAPIEKTISKAK
notes: Expressed in Shuffle cells, purified on HisTrap
B5: the EC50 in [7] is 1.97 nM; in test [8] it was 2.55 nM; in test [9], 1310 nM. In addition, the figures for the Kd in test [13] and in test [14] were 18 nM and 20 nM, respectively.

B6: H3 (first generation loop 2 clone, loop 2 AYYALGG) (designed binder)
chain: GPSVFLFPPKPKDTLMISRTPEVTCVVVDVSHEDPEVKFNWYVDGAEVHHAQTKPRAYYALGGYRVVSVLTVLHQDWLNGKEYKCKVSNKALPAPIEKTISKAK
notes: From library #15 (Glu293 to Thr299 randomised); A9 is kept apart as m12; also called H3par
Consider B6, for which, in test [3], the Kd was 383 nM, the koff was found to be 0.014 s⁻¹ and the kon came to 36400 M⁻¹ s⁻¹.

B7: B11 modified CH2 domain (affinity matured, loop 1 YRADYL, loop 2 of E10) (designed binder)
chain: GPSVFLFPPKPKDTLMISRTPEVTCVVVDYRADYLEVKFNWYVDGAEVHHAQTKPRQYDPLYGYRVVSVLTVLHQDWLNGKEYKCKVSNKALPAPIEKTISKAK
Consider B7, for which the EC50 in test [7] is 9.89 nM; in test [8], 4.43 nM; in test [9] it was 403 nM. Also, the koff in test [10] worked out at 0.0158 s⁻¹. Besides, the kon in test [10] was 1.21e+06 M⁻¹ s⁻¹. In addition, the Kd is 13 nM in test [11], 13.9 nM in test [12], 5.5 nM in test [13] and 3.1 nM in test [14].

B8: B11 modified CH2 domain SEQ ID NO: 89 (C terminal cysteine and N terminal hinge sequence) conjugated with Biotin-dPEG11 (designed binder)
chain: GSCDKTHTAPEKKGGPSVFLFPPKPKDTLMISRTPEVTCVVVDYRADYLDVKFNWYVNGAEVHHAQTKPRQYDPLYGYRVVSVLTVTHQDWLNGKEYTCKVSNKALPAPIQKTISKDC
modifications: conjugated with Biotin-dPEG11-MAL after reduction with DTT; the residue that carries it is not stated (chain has a C terminal cysteine)
notes: also called B11-dPEG-biotin
Regarding B8, the binding result in test [1] is listed as “binds”.

B9: B11 modified CH2 domain SEQ ID NO: 90 (N terminal hinge sequence) conjugated with Biotin-dPEG11 (designed binder)
chain: GSCDKTHTAPEKKGGPSVFLFPPKPKDTLMISRTPEVTCVVVDYRADYLDVKFNWYVNGAEVHHAQTKPRQYDPLYGYRVVSVLTVTHQDWLNGKEYTCKVSNKALPAPIQKTISKDK
modifications: conjugated with Biotin-dPEG11-MAL after reduction with DTT; the residue that carries it is not stated
notes: also called B11-dPEG-biotin
With B9, in test [1], the binding result is recorded as “binds”.

B10: wild type CH2D (wild type human IgG CH2 domain) (other)
chain: APELLGGPSVFLFPPKPKDTLMISRTPEVTCVVVDVSHEDPEVKFNWYVDGVEVHNAKTKPREEQYNSTYRVVSVLTVLHQDWLNGKEYKCKVSNKALPAPIEKTISKAK
notes: also called CH2wt
B10 returned a Kd in [2] of 1660 nM. The binding result in test [15] was “no binding (tested: about 3.6 µM)”.
